According to PMC4571279 (Nature Communications, 2015):
Positions count from the first letter of the chain named. Names may count otherwise.

B1:  (Fab, V domains shown)
VH: QVQLVQSGAEVKKPGSSVKVSCKASGGTFSSYAISWVRQAPGQGLEWMGGIIPILGTASYAQKFQGRVTITADKSTSTAYMELSSLRSEDTAVYYCARVGYCSSTSCNRGAFDIWGQGTMVTVSS
VL: DIQLTQSPSSLSASVGDRVTITCRASQGIRNDLGWYQQKPGKAPKLLIYAASSLQSGVPSRFSGSGSGTDFTLTISSLQPEDFATYYCQQLNSYPLTFGGGTKVEIK
notes: also called m336 F54L
B2:  (Fab, V domains shown)
VH: B1 VH with L55F, K74E
VL: B1 VL
notes: also called m336 K73E

Biological target: T1, recombinant MERS-CoV S1 protein (MERS-CoV, isolate EMC/2012 (strain of …, UniProt K0BRG7))
T1 construct: source: bought: Sino Biological Inc
Experiment: ELISA
Conditions: both partners purified

Binder | fold reduction (EC50) against wild-type m336 [fold] | fold reduction of binding affinity against m336 [fold]
B1 | ≥ 1000 | 
B2 |  | ≥ 10
